Among the data in US20220227840A1 are Kd values, retold here.

In one experiment the target is tissue factor (TF) extracellular domains (UniProt P13726). Nature of the experiment: SPR, TF on chip.
Conditions: not given
Target sequence in this assay (P13726 33-251 limits assumed): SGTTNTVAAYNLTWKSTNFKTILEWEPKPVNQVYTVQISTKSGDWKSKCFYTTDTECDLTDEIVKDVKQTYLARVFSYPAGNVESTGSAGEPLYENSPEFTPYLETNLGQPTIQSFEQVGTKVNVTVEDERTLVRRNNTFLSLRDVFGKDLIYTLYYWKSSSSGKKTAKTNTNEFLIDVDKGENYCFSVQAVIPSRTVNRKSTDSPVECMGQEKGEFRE
As for “D3H44 Fab H:D146G_Q179K L:Q124E_Q160E_T180E”, the Kd turned out to be 24 pM.

“D3H44 Fab H:D146G_Q179R L:Q124E_Q160E_T178D” returned a Kd of 82 pM.

D3H44 Fab H:F174V_P175S_S188G L:S176L: the Kd came out at 40 pM.

Substance “D3H44 Fab H:K145T_Q179D_S188F L:V133A_Q160K_T178R” came in with a Kd of 86 pM.

Turning to “D3H44 Fab H:K145T_Q179D_S188L L:Q160K_T178R”, the Kd was determined as 71 pM.

In turn, “D3H44 Fab H:L143A_D146G_Q179R L:Q124E_V133W_Q160E_T180E” gave a Kd of 87 pM.

On to D3H44 Fab H:L143E_K145T L:Q160K_T178R, for which the Kd worked out at 60 pM.

“D3H44 Fab H:Q39D_A139G_V190A L:Q38R_L135W”: the Kd turned out to be 25 pM.

For D3H44 Fab H:S188L_V190Y L:V133S, the Kd came to 43 pM.

For “D3H44 WT Fab with FLAG-tagged light chain”, the Kd amounted to 62.2 pM.

D3H44 WT Fab with HA-tagged light chain registered a Kd of 52.2 pM.

A further experiment shares this target. The experiment in a line: SPR, TF on chip.
Conditions: not given
This is another data set of the same source.
Target sequence in this assay (P13726 33-251 limits assumed): as above
With D3H44 Fab H:A139G_V190A L:L135W, the dissociation constant (Kd) was 58.6 pM.

In the case of D3H44 Fab H:A139I L:F118W_V133S, the Kd is 52 pM.

As to “D3H44 Fab H:A139I_K145T_D146G_Q179E_S188G_V190S L:F116A_V133G_S176F_T178A”, the Kd was 40.6 pM.

For the substance “D3H44 Fab H:D146G_Q179K L:Q124E_Q160E_T178D”, the Kd is 52.5 pM.

The substance “D3H44 Fab H:D146G_Q179K L:Q124E_Q160E_T180E” returned a Kd of 24.5 pM.

“D3H44 Fab H:D146G_Q179K L:Q124E_V133W_Q160E_T180E” gave a Kd of 82.8 pM.

With “D3H44 Fab H:D146G_Q179R L:Q124E_Q160E_T178D”, the Kd was 81.6 pM.

Take “D3H44 Fab H:D146G_Q179R L:Q124E_Q160E_T180E”: the Kd came to 78 pM.

Substance “D3H44 Fab H:D146G_Q179R L:Q124E_V133W_Q160E_T180E” registered a Kd of 63.1 pM.

“D3H44 Fab H:D146G_S186R L:Q124E_Q160E_T178D” showed a Kd of 51.1 pM.

“D3H44 Fab H:D146G_S186R L:Q124E_Q160E_T180E” yielded a Kd of 67.1 pM.

D3H44 Fab H:F100M_W103V L:P44W_L89W yielded a Kd of 1540 pM.

With D3H44 Fab H:F174G_S188A L:WT, the equilibrium dissociation constant (Kd) came to 79.2 pM.

For D3H44 Fab H:F174V_P175S_S188G L:S176L, the Kd was 39.9 pM.

In the case of D3H44 Fab H:F174V_S188L L:S176G, the Kd was 94.9 pM.

As for D3H44 Fab H:F174V_S188L L:V133S, the Kd was found to be 20.1 pM.

D3H44 Fab H:F174V_S188L L:WT yielded a Kd of 37.7 pM.

For D3H44 Fab H:F174W_S188L L:S176G, the Kd is 15.5 pM.

In turn, D3H44 Fab H:F174W_S188L L:V133S had a Kd of 17.2 pM.

In turn, D3H44 Fab H:F174W_S188L L:WT showed a Kd of 27.1 pM.

As for “D3H44 Fab H:K145E_D146G_Q179D_S188F L:V133A_Q160K_T178R”, the Kd was 21.9 pM.

“D3H44 Fab H:K145E_D146G_Q179D_S188L L:Q160K_T178R” had an equilibrium dissociation constant (Kd) of 41.5 pM.

With D3H44 Fab H:K145L_Q179E L:S131K, the Kd turned out to be 66 pM.

Regarding “D3H44 Fab H:K145T_Q179D_S188F L:Q160K_T178R”, the Kd is 111 pM.

“D3H44 Fab H:K145T_Q179D_S188F L:V133A_Q160K_T178R”: the Kd stood at 85.6 pM.

For “D3H44 Fab H:K145T_Q179D_S188L L:Q160K_T178R”, the equilibrium dissociation constant (Kd) was determined as 70.5 pM.

“D3H44 Fab H:K145T_Q179D_S188L L:V133A_Q160K_T178R” came in with a Kd of 42.3 pM.

Regarding D3H44 Fab H:L45W L:Y87G, the Kd worked out at 197 pM.

Substance “D3H44 Fab H:L143A_D146G_Q179R L:Q124E_V133W_Q160E_T180E” gave a Kd of 87.1 pM.

As to D3H44 Fab H:L143E_K145T L:Q124R, the Kd worked out at 59.6 pM.

As for “D3H44 Fab H:L143E_K145T L:Q124R_Q160K_T178R”, the Kd came to 76.9 pM.

In turn, D3H44 Fab H:L143E_K145T L:Q160K_T178R had a Kd of 23.6 pM.

D3H44 Fab H:L143K_D146G L:Q124E_V133D registered a Kd of 24.3 pM.

For the substance D3H44 Fab H:Q39D L:Q38R_F98W, the Kd is 127 pM.

“D3H44 Fab H:Q39D_A139G_V190A L:Q38R_L135W” showed a Kd of 117 pM.

The substance D3H44 Fab H:Q39E L:Q38N_T85K displayed a Kd of 20.1 pM.

Take D3H44 Fab H:Q39E L:Q38N_T85K_F98W: the Kd came to 34.8 pM.

With D3H44 Fab H:Q39E L:Q38R_F98W, the Kd came out at 163 pM.

In turn, D3H44 Fab H:Q39K L:Q38N_T85E yielded a Kd of 21.3 pM.

Substance D3H44 Fab H:Q39K L:Q38N_T85E_F98W yielded a Kd of 13.4 pM.

The substance D3H44 Fab H:Q39M L:Q38M had a Kd of 27.3 pM.

D3H44 Fab H:Q39R L:Q38D had a Kd of 22.9 pM.

Regarding D3H44 Fab H:Q39R L:Q38D_F98W, the Kd worked out at 127 pM.

D3H44 Fab H:Q39R L:Q38E_F98W showed a Kd of 178 pM.

Substance “D3H44 Fab H:S186K_S188H_V190G L:F118W_Q124E_V133S_S176A_T178S_T180E” displayed a Kd of 61.5 pM.

D3H44 Fab H:S186R L:Q124E_Q160E_T178D: the Kd was 125 pM.

In turn, D3H44 Fab H:S188L L:S176G showed a Kd of 86.6 pM.

For D3H44 Fab H:S188L L:V133S, the Kd was 14.4 pM.

Turning to D3H44 Fab H:S188L L:WT, the Kd is 34.2 pM.

The substance D3H44 Fab H:S188L_V190Y L:V133S had a Kd of 42.8 pM.

Turning to “D3H44 Fab H:V37A_Q39E_W103V L:Q38N_P44W_T85K”, the Kd worked out at 550 pM.

In turn, “D3H44 Fab H:V37A_Q39K_W103H L:Q38N_P44W_T85E” gave a Kd of 832 pM.

D3H44 Fab H:V37A_Q39R_W103V L:Q38E_P44W: the Kd was determined as 977 pM.

With D3H44 Fab H:V37E L:L89R_F98T, the Kd came out at 2410 pM.

Turning to D3H44 Fab H:V37I_Q39D L:Q38R_F98W, the Kd was 177 pM.

For D3H44 Fab H:V37I_Q39E L:Q38N_T85K, the Kd worked out at 18.2 pM.

The substance D3H44 Fab H:V37I_Q39E L:Q38N_T85K_F98W showed a Kd of 125 pM.

D3H44 Fab H:V37I_Q39E L:Q38R_F98W showed a Kd of 72.9 pM.

The substance D3H44 Fab H:V37I_Q39R L:Q38D_F98W showed a Kd of 101 pM.

Substance D3H44 Fab H:V37I_Q39R L:Q38E displayed a Kd of 123 pM.

Substance D3H44 Fab H:V37I_Q39R L:Q38E_F98W gave a Kd of 144 pM.

Turning to D3H44 Fab H:V37I_W103H L:P44W_F98W, the Kd amounted to 240 pM.

As for D3H44 Fab H:V37S_A93K L:F98Y, the Kd was 420 pM.

D3H44 Fab H:V37T_A93Q_W103T L:P44W_F98W came in with a Kd of 1330 pM.

For the substance D3H44 Fab H:V37T_A93Q_W103V L:P44W_F98W, the Kd was determined as 192 pM.

The substance D3H44 Fab H:V37W L:F98A returned a Kd of 3440 pM.

For D3H44 Fab H:V37W_A93V L:F98A, the Kd is 697 pM.

D3H44 Fab H:V37W_F100W_W103L L:F98A registered a Kd of 1220 pM.

For the substance D3H44 Fab H:V37W_Q39D L:Q38R_F98A, the Kd is 1730 pM.

D3H44 Fab H:V37W_Q39D_W103F L:Q38R_F98L displayed a Kd of 924 pM.

D3H44 Fab H:V37W_Q39D_W103H L:Q38R_F98L: the Kd came out at 7890 pM.

For the substance D3H44 Fab H:V37W_Q39E L:Q38N_T85K_F98A, the Kd worked out at 861 pM.

The substance D3H44 Fab H:V37W_Q39E L:Q38R_F98A had a Kd of 902 pM.

“D3H44 Fab H:V37W_Q39E_W103F L:Q38N_T85K_F98L” displayed a Kd of 2510 pM.

D3H44 Fab H:V37W_Q39E_W103F L:Q38R_F98L returned a Kd of 172 pM.

In turn, D3H44 Fab H:V37W_Q39K L:Q38N_T85E_F98A returned a Kd of 1780 pM.

“D3H44 Fab H:V37W_Q39K_W103F L:Q38N_T85E_F98L” showed a Kd of 984 pM.

The substance D3H44 Fab H:V37W_Q39R L:Q38E_F98A gave a Kd of 3180 pM.

D3H44 Fab H:V37W_Q39R_W103F L:Q38E_F98L: the dissociation constant Kd stood at 1110 pM.

The substance D3H44 Fab H:V37W_Q39R_W103H L:Q38D_F98L showed a Kd of 5620 pM.

For the substance D3H44 Fab H:V37W_Q39R_W103H L:Q38E_F98L, the Kd was 2990 pM.

Take D3H44 Fab H:V37W_W103F L:F98L: the Kd was determined as 955 pM.

Regarding D3H44 Fab H:W103H L:P44W_F98W, the Kd was found to be 212 pM.

The substance D3H44 Fab H:W103H L:P44W_L89W_F98A displayed a Kd of 3400 pM.

In turn, D3H44 Fab H:W103V L:P44W_F98W returned a Kd of 174 pM.

Take D3H44 Fab H:W103V L:P44W_L89W_F98A: the Kd amounted to 4120 pM.

In the case of D3H44 Fab H:WT L:F98W, the Kd stood at 10.9 pM.

Substance D3H44 Fab H:WT L:L89F_F98W displayed a Kd of 239 pM.

Take Wild-type anti-TF D3H44 Fab: the Kd was 56 pM.

Another experiment has the same target.
Assay: not given
The note with it: Fab.
Target sequence in this assay (P13726 33-251): as the sequence (P13726 33-251 limits assumed) above
D3H44 Fab H:V37W L:F98A returned a dissociation constant (Kd) of 977 pM.
